Results published in article PMC8785239.

Target: fluorescein-labeled sulfopeptide
Assay: fluorescence polarisation

Substance	fold improvement in affinity over SH2-wt	fold improvement in affinity for sulfopeptide over phosphopeptide
SH2-E38P (domain or fragment)	17 fold	
SH2-S37H (domain or fragment)		1.4 fold
SH2-S37H/E38P (domain or fragment)		6.6 fold
SH2-T39F (domain or fragment)	> 35 fold	
